In US20060205646:

T1: Heat gamma
T1 chain: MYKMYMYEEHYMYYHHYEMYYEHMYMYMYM

B1: activated recombinant MMP1 (protein)
chain: FVLTEGNPRWEQTHLTYRIENYTPDLPRADVDHAIEKAFQLWSNVTPLTFTKVSEGQADIMISFVRGDHRDNSPFDGPGGNLAHAFQPGPGIGGDAHFDEDERWTNNFREYNLHRVAAHELGHSLGLSHSTDIGALMYPSYTFSGDVQLAQDDIDGIQAIYGRSQNPVQPIGPQTPKACDSKLTFDAITTIRGEVMFFKDRFYMRTNPFYPEVELNFISVFWPQLPNGLEAAYEFADRDEVRFFKGNKYWAVQGQNVLHGYPKDIYSSFGFPRTVKHIDAALSEENTGKTYFFVANKYWRYDEYKRSMDPGYPKMIAHDFPGIGHKVDAVFMKDGFFYFFHGTRQYKFDPKTKRILTLQKANSWFNCRKN
B2: activated recombinant MMP2 (protein)
chain: YNFFPRKPKWDKNQITYRIIGYTPDLDPETVDDAFARAFQVWSDVTPLRFSRIHDGEADIMINFGRWEHGDGYPFDGKDGLLAHAFAPGTGVGGDSHFDDDELWTLGEGQVVRVKYGNADGEYCKFPFLFNGKEYNSCTDTGRSDGFLWCSTTYNFEKDGKYGFCPHEALFTMGGNAEGQPCKFPFRFQGTSYDSCTTEGRTDGYRWCGTTEDYDRDKKYGFCPETAMSTVGGNSEGAPCVFPFTFLGNKYESCTSAGRSDGKMWCATTANYDDDRKWGFCPDQGYSLFLVAAHEFGHAMGLEHSQDPGALMAPIYTYTKNFRLSQDDIKGIQELYGASPDIDLGTGPTPTLGPVTPEICKQDIVFDGIAQIRGEIFFFKDRFIWRTVTPRDKPMGPLLVATFWPELPEKIDAVYEAPQEEKAVFFAGNEYWIYSASTLERGYPKPLTSLGLPPDVQRVDAAFNWSKNKKTYIFAGDKFWRYNEVKKKMDPGFPKLIADAWNAIPDNLDAVVDLQGGGHSYFFKGAYYLKLENQSLKSVKFGSIKSDWLGC

Target: T1, Heat gamma

| Protein | cleavage of Fluorogenic Peptide substrate I by 0.2 µg activated recombinant MMP1, 60 µg Heat Gamma | cleavage of Fluorogenic Peptide substrate I by 0.2 µg activated recombinant MMP2, 60 µg Heat Gamma |
| --- | --- | --- |
| B1 | Heat gamma efficiently inhibits the MMP1 activity as indicated by a decrease in relative fluorescence |  |
| B2 |  | Heat gamma efficiently inhibits the MMP2 activity as indicated by a decrease in relative fluorescence |
